Experiment [1] addresses Asterias forbesii ferritin (AfFer) (Asterias forbesii). The experiment can be described thus: native gel or EMSA; native-PAGE and SDS-PAGE of purified AfFer; subunits to the 24-mer cage.
Experiment [2] has the same target. In words: crystal structure; hanging drop vapour diffusion, 20 °C, 12.0 µM ferritin in 5.0 mM Tris-HCl; crystals with body-centered tetragonal (BCT) lattice; subunits in the 24-mer cage and cage to cage contacts.

In the case of “Asterias forbesii ferritin (AfFer) (natural protein)”, the stoichiometry N in experiment [1] and in experiment [2] was 24 each time.

The record behind these values is publication PMC10647799.
